Key:
[1] = target: HLA-G on cells (K562-HLA-G and HLA-G expressing tumor cells) (human); experiment: cell-based or functional assay
[2] = target: T1, MHGW8 (B2m-3(G4S)-HLA-G1-G4S-Avi) (human, biotinylated (Avi tag) in the blocking assay); experiment: SPR, mAb captured by goat anti-human Fc, MHGW8 flowed
T1 construct: Single chain β2m-HLA-G1; also called soluble HLA-G1 extracellular domain; recombinant biotinylated HLA-G1

B1: HC3B124 (bispecific antibody, human IgG1, lambda, L234A L235A)
heavy: EVQLVESGGGLVQPGGSLRLSCAASGFTFNTYAMNWVRQAPGKGLEWVARIRSKYNNYATYYAASVKGRFTISRDDSKNSLYLQMNSLKTEDTAVYYCVRHGNFGNSYVSWFAYWGQGTLVTVSSASTKGPSVFPLAPSSKSTSGGTAALGCLVKDYFPEPVTVSWNSGALTSGVHTFPAVLQSSGLYSLSSVVTVPSSSLGTQTYICNVNHKPSNTKVDKKVEPKSCDKTHTCPPCPAPEAAGGPSVFLFPPKPKDTLMISRTPEVTCVVVSVSHEDPEVKFNWYVDGVEVHNAKTKPREEQYNSTYRVVSVLTVLHQDWLNGKEYKCKVSNKALPAPIEKTISKAKGQPREPQVYVYPPSREEMTKNQVSLTCLVKGFYPSDIAVEWESNGQPENNYKTTPPVLDSDGSFALVSKLTVDKSRWQQGNVFSCSVMHEALHNHYTQKSLSLSPG
light: QTVVTQEPSLTVSPGGTVTLTCRSSTGAVTTSNYANWVQQKPGQAPRGLIGGTNKRAPGTPARFSGSLLGGKAALTLSGVQPEDEAEYYCALWYSNLWVFGGGTKLTVLGQPKAAPSVTLFPPSSEELQANKATLVCLISDFYPGAVTVAWKADSSPVKAGVETTTPSKQSNNKYAASSYLSLTPEQWKSHRSYSCQVTHEGSTVEKTVAPTECS
scFv: DIVMTQSPDSLAVSLGERATINCKSSQSVLHSSNNKNYLTWFQQKPGQPPKLLIYWASTRESGVPDRFSGSGSGTDFTLTISSLQAEDVAVYYCHQYYSTPPTFGQGTKVEIKGGSEGKSSGSGSESKSTGGSQVQLQQSGPGLVKPSQTLSLTCAISGDSVSSNSAAWNWIRQSPSRGLEWLGRTYYRSKWYNDYAVSVKSRITINPDTSKNQISLQLNSVTPEDTAVYYCAGDRRYGIVGLPFAYWGQGTLVTVSSEPKSSDKTHTCPPCPAPEAAGGPSVFLFPPKPKDTLMISRTPEVTCVVVSVSHEDPEVKFNWYVDGVEVHNAKTKPREEQYNSTYRVVSVLTVLHQDWLNGKEYKCKVSNKALPAPIEKTISKAKGQPREPQVYVLPPSREEMTKNQVSLLCLVKGFYPSDIAVEWESNGQPENNYLTWPPVLDSDGSFFLYSKLTVDKSRWQQGNVFSCSVMHEALHNHYTQKSLSLSPG
For B1, the “Cytotoxicity, EC50 (T cell-mediated, NCI-H2009-b2m target cells, 72 hr)” value (from here on “Cytotoxicity, EC50”) [1] was 0.00385 nM.

B2: MHGB737 (antibody, human IgG1, kappa, V domains shown)
VH: EVQLLESGGGLVQPGGSLRLSCAASGFTFSSYAMHWVRQAPGKGLEWVSGISGSGFSTYYVDSVKGRFTISRDNSKNTLYLQMNSLRAEDTAVYYCAKDNLVAGTVFDYWGQGTLVTVSS
VL: not shown
notes: IgG1; also called GL-optimized B694
With B2 the Kd [2] was 2.56 nM, the koff [2] was 0.00031 s⁻¹ and the kon [2] was 200000 M⁻¹ s⁻¹.

B3: HC3B232 (bispecific antibody, human IgG1, kappa, L234A L235A)
scFv: DIQMTQSPSSLSASVGDRVTITCRARQSIGTAIHWYQQKPGKAPKLLIKYASESISGVPSRFSGSGSGTDFTLTISSVQPEDFATYYCQQSGSWPYTFGQGTKLEIKGGSEGKSSGSGSESKSTGGSEVQLVESGGGLVKPGGSLRLSCAASGFTFSRYNMNWVRQAPGKGLEWVSSISTSSNYIYYADSVKGRFTFSRDNAKNSLDLQMSGLRAEDTAIYYCTRGWGPFDYWGQGTLVTVSSEPKSSDKTHTCPPCPAPEAAGGPSVFLFPPKPKDTLMISRTPEVTCVVVSVSHEDPEVKFNWYVDGVEVHNAKTKPREEQYNSTYRVVSVLTVLHQDWLNGKEYKCKVSNKALPAPIEKTISKAKGQPREPQVYVYPPSREEMTKNQVSLTCLVKGFYPSDIAVEWESNGQPENNYKTTPPVLDSDGSFALVSKLTVDKSRWQQGNVFSCSVMHEALHNHYTQKSLSLSPGK
heavy: QVQLQQSGPGLVKPSQTLSLTCAISGDSVSSNSAAWNWIRQSPSRGLEWLGRTYYRSKWYNDYAVSVKSRITINPDTSKNQISLQLNSVTPEDTAVYYCAGDRRYGIVGLPFAYWGQGTLVTVSSASTKGPSVFPLAPSSKSTSGGTAALGCLVKDYFPEPVTVSWNSGALTSGVHTFPAVLQSSGLYSLSSVVTVPSSSLGTQTYICNVNHKPSNTKVDKKVEPKSCDKTHTCPPCPAPEAAGGPSVFLFPPKPKDTLMISRTPEVTCVVVSVSHEDPEVKFNWYVDGVEVHNAKTKPREEQYNSTYRVVSVLTVLHQDWLNGKEYKCKVSNKALPAPIEKTISKAKGQPREPQVYVLPPSREEMTKNQVSLLCLVKGFYPSDIAVEWESNGQPENNYLTWPPVLDSDGSFFLYSKLTVDKSRWQQGNVFSCSVMHEALHNHYTQKSLSLSPG
light: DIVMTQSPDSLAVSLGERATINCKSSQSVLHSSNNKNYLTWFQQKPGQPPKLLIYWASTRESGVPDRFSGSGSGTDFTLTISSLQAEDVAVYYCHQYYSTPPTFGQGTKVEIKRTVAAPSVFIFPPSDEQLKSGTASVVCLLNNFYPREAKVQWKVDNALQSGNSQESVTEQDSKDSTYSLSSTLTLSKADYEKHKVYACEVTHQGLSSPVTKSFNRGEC
For B3, the “Cytotoxicity, EC50” value [1] was 0.00677 nM.

B4: HC3B231 (bispecific antibody, human IgG1, kappa, L234A L235A)
scFv: QSALTQPASVSGSPGQSITISCTGTSSNIGTYKFVSWYQQHPGKAPKVMIYEVSKRPSGVSNRFSGSKSGNTASLTISGLQAEDEADYYCVSYAGSGTLLFGGGTKLTVLGGSEGKSSGSGSESKSTGGSQVQLQQSGPGLVKPSQTLSLTCAISGDSVFNNNAAWSWIRQSPSRGLEWLGRTYYRSKWLYDYAVSVKSRITINPDTSKNQFSLQLNSVTPEDTAVYYCARGYSSSFDYWGQGTLVTVSSEPKSSDKTHTCPPCPAPEAAGGPSVFLFPPKPKDTLMISRTPEVTCVVVSVSHEDPEVKFNWYVDGVEVHNAKTKPREEQYNSTYRVVSVLTVLHQDWLNGKEYKCKVSNKALPAPIEKTISKAKGQPREPQVYVYPPSREEMTKNQVSLTCLVKGFYPSDIAVEWESNGQPENNYKTTPPVLDSDGSFALVSKLTVDKSRWQQGNVFSCSVMHEALHNHYTQKSLSLSPG
heavy: QVQLQQSGPGLVKPSQTLSLTCAISGDSVSSNSAAWNWIRQSPSRGLEWLGRTYYRSKWYNDYAVSVKSRITINPDTSKNQISLQLNSVTPEDTAVYYCAGDRRYGIVGLPFAYWGQGTLVTVSSASTKGPSVFPLAPSSKSTSGGTAALGCLVKDYFPEPVTVSWNSGALTSGVHTFPAVLQSSGLYSLSSVVTVPSSSLGTQTYICNVNHKPSNTKVDKKVEPKSCDKTHTCPPCPAPEAAGGPSVFLFPPKPKDTLMISRTPEVTCVVVSVSHEDPEVKFNWYVDGVEVHNAKTKPREEQYNSTYRVVSVLTVLHQDWLNGKEYKCKVSNKALPAPIEKTISKAKGQPREPQVYVLPPSREEMTKNQVSLLCLVKGFYPSDIAVEWESNGQPENNYLTWPPVLDSDGSFFLYSKLTVDKSRWQQGNVFSCSVMHEALHNHYTQKSLSLSPG
light: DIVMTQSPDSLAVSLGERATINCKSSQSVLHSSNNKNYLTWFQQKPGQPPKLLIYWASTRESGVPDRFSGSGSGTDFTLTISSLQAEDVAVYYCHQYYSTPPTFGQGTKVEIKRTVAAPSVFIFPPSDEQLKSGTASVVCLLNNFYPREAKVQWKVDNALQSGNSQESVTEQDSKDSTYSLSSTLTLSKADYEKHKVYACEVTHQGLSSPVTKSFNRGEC
With B4 the “Cytotoxicity, EC50” value [1] was 0.126 nM.

B5: HC3B235 (bispecific antibody, human IgG1, kappa, L234A L235A)
scFv: QTVVTQEPSLTVSPGGTVTLTCRSSTGAVTTSNYANWVQQKPGQAPRGLIGGTNKRAPGTPARFSGSLLGGKAALTLSGVQPEDEAEYYCALWYSNLWVFGGGTKLTVLGGSEGKSSGSGSESKSTGGSEVQLVESGGGLVQPGGSLRLSCAASGFTFNTYAMNWVRQAPGKGLEWVARIRSKYNNYATYYAASVKGRFTISRDDSKNSLYLQMNSLKTEDTAVYYCVRHGNFGNSYVSWFAYWGQGTLVTVSSEPKSSDKTHTCPPCPAPEAAGGPSVFLFPPKPKDTLMISRTPEVTCVVVSVSHEDPEVKFNWYVDGVEVHNAKTKPREEQYNSTYRVVSVLTVLHQDWLNGKEYKCKVSNKALPAPIEKTISKAKGQPREPQVYVYPPSREEMTKNQVSLTCLVKGFYPSDIAVEWESNGQPENNYKTTPPVLDSDGSFALVSKLTVDKSRWQQGNVFSCSVMHEALHNHYTQKSLSLSPG
heavy: QVQLQQSGPGLVKPSQTLSLTCAISGDSVSSNRAAWNWIRQSPSRGLEWLGRTYYRSKWYNDYAVSVKSRITINPDTSKNQISLQLNSVTPEDTAVYYCARVRPGIPFDYWGQGTPVTVSSASTKGPSVFPLAPSSKSTSGGTAALGCLVKDYFPEPVTVSWNSGALTSGVHTFPAVLQSSGLYSLSSVVTVPSSSLGTQTYICNVNHKPSNTKVDKKVEPKSCDKTHTCPPCPAPEAAGGPSVFLFPPKPKDTLMISRTPEVTCVVVSVSHEDPEVKFNWYVDGVEVHNAKTKPREEQYNSTYRVVSVLTVLHQDWLNGKEYKCKVSNKALPAPIEKTISKAKGQPREPQVYVLPPSREEMTKNQVSLLCLVKGFYPSDIAVEWESNGQPENNYLTWPPVLDSDGSFFLYSKLTVDKSRWQQGNVFSCSVMHEALHNHYTQKSLSLSPG
light: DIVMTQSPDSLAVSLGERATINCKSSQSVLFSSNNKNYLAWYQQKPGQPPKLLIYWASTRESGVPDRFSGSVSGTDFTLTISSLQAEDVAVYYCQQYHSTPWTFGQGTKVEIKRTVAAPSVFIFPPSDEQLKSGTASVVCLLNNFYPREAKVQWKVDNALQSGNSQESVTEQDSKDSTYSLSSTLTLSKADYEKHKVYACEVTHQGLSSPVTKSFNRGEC
B5 was tested, and the “Cytotoxicity, EC50” value [1] was 0.0837 nM.

B6: HC3B230 (bispecific antibody, human IgG1, kappa, L234A L235A)
scFv: QTVVTQEPSLTVSPGGTVTLTCRSSTGAVTTSNYANWVQQKPGQAPRGLIGGTNKRAPGTPARFSGSLLGGKAALTLSGVQPEDEAEYYCALWYSNLWVFGGGTKLTVLGGSEGKSSGSGSESKSTGGSEVQLVESGGGLVQPGGSLRLSCAASGFTFNTYAMNWVRQAPGKGLEWVARIRSKYNNYATYYAASVKGRFTISRDDSKNSLYLQMNSLKTEDTAVYYCVRHGNFGNSYVSWFAYWGQGTLVTVSSEPKSSDKTHTCPPCPAPEAAGGPSVFLFPPKPKDTLMISRTPEVTCVVVSVSHEDPEVKFNWYVDGVEVHNAKTKPREEQYNSTYRVVSVLTVLHQDWLNGKEYKCKVSNKALPAPIEKTISKAKGQPREPQVYVYPPSREEMTKNQVSLTCLVKGFYPSDIAVEWESNGQPENNYKTTPPVLDSDGSFALVSKLTVDKSRWQQGNVFSCSVMHEALHNHYTQKSLSLSPG
heavy: QVQLQQSGPGLVKPSQTLSLTCAISGDSVSSNSAAWNWIRQSPSRGLEWLGRTYYRSKWYNDYAVSVKSRITINPDTSKNQISLQLNSVTPEDTAVYYCAGDRRYGIVGLPFAYWGQGTLVTVSSASTKGPSVFPLAPSSKSTSGGTAALGCLVKDYFPEPVTVSWNSGALTSGVHTFPAVLQSSGLYSLSSVVTVPSSSLGTQTYICNVNHKPSNTKVDKKVEPKSCDKTHTCPPCPAPEAAGGPSVFLFPPKPKDTLMISRTPEVTCVVVSVSHEDPEVKFNWYVDGVEVHNAKTKPREEQYNSTYRVVSVLTVLHQDWLNGKEYKCKVSNKALPAPIEKTISKAKGQPREPQVYVLPPSREEMTKNQVSLLCLVKGFYPSDIAVEWESNGQPENNYLTWPPVLDSDGSFFLYSKLTVDKSRWQQGNVFSCSVMHEALHNHYTQKSLSLSPG
light: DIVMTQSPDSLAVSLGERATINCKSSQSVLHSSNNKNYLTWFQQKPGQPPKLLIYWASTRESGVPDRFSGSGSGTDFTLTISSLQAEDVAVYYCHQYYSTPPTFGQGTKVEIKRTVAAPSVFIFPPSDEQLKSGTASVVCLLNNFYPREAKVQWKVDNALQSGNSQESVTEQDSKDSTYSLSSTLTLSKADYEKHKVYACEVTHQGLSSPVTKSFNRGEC
With B6 the “Cytotoxicity, EC50” value [1] was 0.00992 nM.

From patent US20220411504A1 (Janssen / Centocor, published 2022)
